Reference: IntAct's records for PubMed 25730778

B1: Protein argonaute (Schizosaccharomyces pombe (strain ATCC 38366 / 972)), O74957 (parent)
chain: MSYKPSSEIALRPGYGGLGKQITLKANFFQIISLPNETINQYHVIVGDGSRVPRKQSQLIWNSKEVKQYFGSSWMNSVYDGRSMCWSKGDIADGTIKVNIGSESHPREIEFSIQKSSKINLHTLSQFVNSKYSSDPQVLSSIMFLDLLLKKKPSETLFGFMHSFFTGENGVSLGGGVEAWKGFYQSIRPNQGFMSVNVDISSSAFWRNDSLLQILMEYTDCSNVRDLTRFDLKRLSRKFRFLKVTCQHRNNVGTDLANRVYSIEGFSSKSASDSFFVRRLNGEEQKISVAEYFLENHNVRLQYPNLPCILVKNGAMLPIEFCFVVKGQRYTAKLNSDQTANMIRFAVQRPFERVQQIDDFVHQMDWDTDPYLTQYGMKIQKKMLEVPARVLETPSIRYGGDCIERPVSGRWNLRGKRFLDPPRAPIRSWAVMCFTSTRRLPMRGIENFLQTYVQTLTSLGINFVMKKPPVLYADIRGSVEELCITLYKKAEQVGNAPPDYLFFILDKNSPEPYGSIKRVCNTMLGVPSQCAISKHILQSKPQYCANLGMKINVKVGGINCSLIPKSNPLGNVPTLILGGDVYHPGVGATGVSIASIVASVDLNGCKYTAVSRSQPRHQEVIEGMKDIVVYLLQGFRAMTKQQPQRIIYFRDGTSEGQFLSVINDELSQIKEACHSLSPKYNPKILVCTTQKRHHARFFIKNKSDGDRNGNPLPGTIIEKHVTHPYQYDFYLISHPSLQGVSVPVHYTVLHDEIQMPPDQFQTLCYNLCYVYARATSAVSLVPPVYYAHLVSNLARYQDVTADDTFVETSEASMDQEVKPLLALSSKLKTKMWYM
partner: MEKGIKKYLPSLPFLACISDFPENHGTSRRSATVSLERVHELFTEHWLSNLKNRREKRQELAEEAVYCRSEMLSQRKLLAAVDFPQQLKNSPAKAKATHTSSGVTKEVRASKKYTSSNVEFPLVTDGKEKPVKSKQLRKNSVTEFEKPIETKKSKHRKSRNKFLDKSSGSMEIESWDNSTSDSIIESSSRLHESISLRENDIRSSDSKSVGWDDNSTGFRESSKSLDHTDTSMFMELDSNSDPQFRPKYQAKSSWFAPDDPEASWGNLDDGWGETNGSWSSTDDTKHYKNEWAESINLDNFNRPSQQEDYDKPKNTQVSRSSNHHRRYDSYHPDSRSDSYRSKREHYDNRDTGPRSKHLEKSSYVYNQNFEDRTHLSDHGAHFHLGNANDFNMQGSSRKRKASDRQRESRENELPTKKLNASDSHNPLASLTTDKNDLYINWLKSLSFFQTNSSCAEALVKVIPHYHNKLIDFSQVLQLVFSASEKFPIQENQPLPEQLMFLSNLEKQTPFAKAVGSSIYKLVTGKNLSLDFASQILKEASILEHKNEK

Variants of: B1
Conditions: with tas3_schpo tas3, O94687

Variant | effect of a mutation on the interaction
F276A;R773E | disrupting interaction strength
R773E | disrupting interaction strength
